Measured values taken from paper PMC8770708.
Values joined by “and” are separate entries in the source; they are usually repeats but may differ in a detail not shown here. Equal entries are not always repeated.

Experiments:
[1] = target: TraB with a C-terminal double twin-Strep tag (TraB_(Strep4)), VirB10-like subunit of the pED208-encoded T4SS (IncFV plasmid pED208 (carried in E. coli)); assay: cryo-EM structure; OMCC purified in the same way from E. coli BL21(DE3, pKBV) producing only TraV, TraK and TraB_(Strep4); C13 reconstruction of the ORC, C17 and C16 reconstructions of the CC
[2] = target: TraB with a C-terminal double twin-Strep tag (TraB_(Strep4)), VirB10-like subunit of the pED208-encoded T4SS (IncFV plasmid pED208 (carried in E. coli)); assay: cryo-EM structure; OMCC purified from E. coli MC4100(pED208-traB_(Strep4)) (WT) by StrepTrap and Superdex 200 in 50 mM Tris-HCl pH 8, 200 mM NaCl, 1 mM DTT, 1 mM EDTA, 0.06% DM-NPG, 0.1% digitonin; C1, C13 and C17 reconstructions
[3] = target: TraK, VirB9-like subunit of the pED208-encoded T4SS (IncFV plasmid pED208 (carried in E. coli)); assay: as above
[4] = target: TraV, VirB7-like lipoprotein subunit of the pED208-encoded T4SS (IncFV plasmid pED208 (carried in E. coli)); assay: as above

“TraB with a C-terminal double twin-Strep tag (TraB_(Strep4)), VirB10-like subunit of the pED208-encoded T4SS (natural protein)” was tested. Which stoichiometry N [1] did it give?
The stoichiometry N was 16 and 17.

What about the stoichiometry N [2] of the same substance?
Its stoichiometry N is 17 copies.

How did the stoichiometry N [3] turn out when “TraK, VirB9-like subunit of the pED208-encoded T4SS (natural protein)” was run?
Its stoichiometry N is 26 copies.

For “TraV, VirB7-like lipoprotein subunit of the pED208-encoded T4SS (natural protein)”, which stoichiometry N [4] is on record?
The stoichiometry N was 26 copies.
